First the molecules themselves.
B1: Dynamin-binding protein, residues 242 to 304; numbered along this chain, Q6XZF7 (parent)
chain: EEPGTYGVALYRFQALEPNELDFEVGDKIRILATLEDGWLEGSLKGRTGIFPYRFVKLCPDTR

± gives the uncertainty stated by the source.

This data set covers variants of B1. The data set is described as follows: abundance fitness (aPCA) (normalised: wild type 0, dead -1); higher = more abundant; growth selection in yeast, the domain comes from the species named. To be noted: Homo sapiens.
Consider EEPGTYGVALYRFQALEPKELDFEVGDKIRILATLEDGWLEGSLKGRTGIFPYRFVKLCPDTR [N19K], for which the abundance fitness is -0.227 ± 0.14.
In the case of EEPGTYGVALYRFQALEPVELDFEVGDKIRILATLEDGWLEGSLKGRTGIFPYRFVKLCPDTR [N19V] it was -0.563 ± 0.068.
In the case of EEPGTYGVALYRFQALEPNELDFEVGDKIRILATLEDGWGEGSLKGRTGIFPYRFVKLCPDTR [L40G] it was -0.383 ± 0.059.
The result for EEPGTYGVALYRFQALEPNELDFEVGDKIRILATLEDGWLEGSLKGRTGIFPYQFVKLCPDTR [R54Q] reads -0.008 ± 0.11; that for EEPGTYGVALYRFQALEPNELDFEVGDKIRILATLEMGWLEGSLKGRTGIFPYRFVKLCPDTR [D37M], -1.02 ± 0.34.
As for EEPGTYGVALYRFQALEPNELDFEVGDKIRILATLEDGWLEGSLKGRTGIFPYRFVKLCEDTR [P60E], the abundance fitness is -0.076 ± 0.15.
The result for EEPGTYGVALYRFQALEPNELDFEVGDKIRILATLEDGWLEGSLKGRTGIFPYRFVKLCWDTR [P60W] reads -0.274 ± 0.16; that for EEPGTYGVALYRFQALEPNELDFEVGDKIRILATLEDGWLEGSLKGRTGIFKYRFVKLCPDTR [P52K], -0.794 ± 0.33; that for EEPGTYGVALYRFQALEPNELDFEVGDKIRILATLEDGWLEGSLKGRTGIFVYRFVKLCPDTR [P52V], -0.816 ± 0.095.
The result for EEPGTYGVALYRFQALEPNELDFEVGDKIRILATLEDGWLEGSLKGRTGIFMYRFVKLCPDTR [P52M] reads -0.401 ± 0.23; that for EEPGTLGVALYRFQALEPNELDFEVGDKIRILATLEDGWLEGSLKGRTGIFPYRFVKLCPDTR [Y6L], -0.309 ± 0.066.
The result for EEPRTYGVALYRFQALEPNELDFEVGDKIRILATLEDGWLEGSLKGRTGIFPYRFVKLCPDTR [G4R] reads -0.187 ± 0.059; that for EEPGTYGVALYRFQALEPNELDFEVGDKIRILATLEDGWLEGSLKGRTGIFPYRFGKLCPDTR [V56G], -0.729 ± 0.075.
As for EEPGTYGVALYRFQADEPNELDFEVGDKIRILATLEDGWLEGSLKGRTGIFPYRFVKLCPDTR [L16D], the abundance fitness was 0.047 ± 0.063.
The result for EEPGTYGVALYRFQAWEPNELDFEVGDKIRILATLEDGWLEGSLKGRTGIFPYRFVKLCPDTR [L16W] reads -0.501 ± 0.16.
In the case of EEPGTYGVALYRFQALEPNELDFEVGDKIRILATLEDGWLEGSLKGRTGIFPYRFVKSCPDTR [L58S] it was -0.64 ± 0.06; in that of EEPGTYGVALTRFQALEPNELDFEVGDKIRILATLEDGWLEGSLKGRTGIFPYRFVKLCPDTR [Y11T], 0.044 ± 0.06; in that of EWPGTYGVALYRFQALEPNELDFEVGDKIRILATLEDGWLEGSLKGRTGIFPYRFVKLCPDTR [E2W], 0.044 ± 0.29.
The result for EEPGTYGVALYRFQALEPNELDFEVGDKIRILAGLEDGWLEGSLKGRTGIFPYRFVKLCPDTR [T34G] reads -0.481 ± 0.06; that for EEPGTYGVALYRFQALEPNELDFTVGDKIRILATLEDGWLEGSLKGRTGIFPYRFVKLCPDTR [E24T], -0.278 ± 0.086; that for EEPGTYGVALYRFQALEPNELDFVVGDKIRILATLEDGWLEGSLKGRTGIFPYRFVKLCPDTR [E24V], -0.471 ± 0.06.
For EEPGTYGVALYRFQALEPNELDFEVGDKIRILCTLEDGWLEGSLKGRTGIFPYRFVKLCPDTR [A33C], the abundance fitness was -0.291 ± 0.074.
The result for EEPGTYGVALYRFQALEPNELDFEVGDKIRILATLEDGWLEGSLDGRTGIFPYRFVKLCPDTR [K45D] reads 0.104 ± 0.075; that for EEPGTYGVALYRFQALEPNELDFEVGDKIRILATLEDGWLEGSLGGRTGIFPYRFVKLCPDTR [K45G], -0.113 ± 0.07.
The result for EEPGTYGVALYRFQALEPNELDFEVGDKIRILATYEDGWLEGSLKGRTGIFPYRFVKLCPDTR [L35Y] reads -0.187 ± 0.059.
The result for GEPGTYGVALYRFQALEPNELDFEVGDKIRILATLEDGWLEGSLKGRTGIFPYRFVKLCPDTR [E1G] reads -0.163 ± 0.067; that for EEPGTYGVALYRFQALEPNELDFEVGDKIRILATLEDGWLEGSLKFRTGIFPYRFVKLCPDTR [G46F], -0.687 ± 0.051; that for EEPGTYGVALYRFQALEPNELDFEVGDKIRILATLEDGWLEGSLKCRTGIFPYRFVKLCPDTR [G46C], -0.719 ± 0.053.
Take EEPGTYGVALYRFQALEPNSLDFEVGDKIRILATLEDGWLEGSLKGRTGIFPYRFVKLCPDTR [E20S]: the abundance fitness is -0.468 ± 0.059.
With EEPGTYGVALYRFQALNPNELDFEVGDKIRILATLEDGWLEGSLKGRTGIFPYRFVKLCPDTR [E17N], the abundance fitness worked out at 0.158 ± 0.054.
The result for EEPGTYGVALYRFQALEPNELDFEVFDKIRILATLEDGWLEGSLKGRTGIFPYRFVKLCPDTR [G26F] reads -0.682 ± 0.09; that for EEPGTYGVALYRFQALEPNEEDFEVGDKIRILATLEDGWLEGSLKGRTGIFPYRFVKLCPDTR [L21E], -0.643 ± 0.38; that for EEPGTYGVALYRFQALEPNELDFEVGDKIRILATLEDGWLEHSLKGRTGIFPYRFVKLCPDTR [G42H], -0.282 ± 0.096.
With EEPGTYGVALYRFQALEPNELDFEVGDKIRIFATLEDGWLEGSLKGRTGIFPYRFVKLCPDTR [L32F], the abundance fitness is -0.652 ± 0.086.
As for EEYGTYGVALYRFQALEPNELDFEVGDKIRILATLEDGWLEGSLKGRTGIFPYRFVKLCPDTR [P3Y], the abundance fitness is 0.053 ± 0.07.
The result for EEPGTYGVALYRFQALEPNELDFEFGDKIRILATLEDGWLEGSLKGRTGIFPYRFVKLCPDTR [V25F] reads -0.573 ± 0.08; that for EEPGTYGVALYRFQALEPNELDFEVGDKIRILATLEDGWLEGSLKGRTGIFPYRFVTLCPDTR [K57T], -0.167 ± 0.058.
In the case of EEPGTYGVALYRFQALEPNELDFEVGDKIRILATLEDGWLEGSLKGRTGIFPYRFVPLCPDTR [K57P] it was -0.746 ± 0.12; in that of EEPGTYGVALYRFQALEPNELDVEVGDKIRILATLEDGWLEGSLKGRTGIFPYRFVKLCPDTR [F23V], -0.334 ± 0.056; in that of EEPGTYGVALYRFQALEPNELDFEVGDKIRILATLEDGWLEGSLKGRTGIFPYRFVKLCPDTI [R63I], -0.012 ± 0.061.
The result for EEPGTYGRALYRFQALEPNELDFEVGDKIRILATLEDGWLEGSLKGRTGIFPYRFVKLCPDTR [V8R] reads -0.302 ± 0.086.
For the variant EEPGTYGVALYRFQALEPNELDFEVGDKIRILATLEDGWLEGSGKGRTGIFPYRFVKLCPDTR [L44G], the abundance fitness is -0.868 ± 0.12.
The result for EEPGTYGVALYRFQALEPNELDFEVGDKIRILATLEDGWLEGSSKGRTGIFPYRFVKLCPDTR [L44S] reads -0.313 ± 0.072.

For the origin of these results see the Human Domainome abundance scans (Beltran et al. 2025).
